This is an account of results in paper PMC7193404, “FHF1 is a bona fide fibroblast growth factor that activates cellular signaling in FGFR-dependent manner” (Cell Communication and Signaling : CCS, 2020).

This experiment addresses T1, extracellular region of FGFR1 fused to the Fc fragment (UniProt P11362 22-376).
T1 construct: extracellular region of FGFR1; also called FGFR1-Fc; source: produced in mammalian cells; as described previously [27-29]
T1 sequence (looked up): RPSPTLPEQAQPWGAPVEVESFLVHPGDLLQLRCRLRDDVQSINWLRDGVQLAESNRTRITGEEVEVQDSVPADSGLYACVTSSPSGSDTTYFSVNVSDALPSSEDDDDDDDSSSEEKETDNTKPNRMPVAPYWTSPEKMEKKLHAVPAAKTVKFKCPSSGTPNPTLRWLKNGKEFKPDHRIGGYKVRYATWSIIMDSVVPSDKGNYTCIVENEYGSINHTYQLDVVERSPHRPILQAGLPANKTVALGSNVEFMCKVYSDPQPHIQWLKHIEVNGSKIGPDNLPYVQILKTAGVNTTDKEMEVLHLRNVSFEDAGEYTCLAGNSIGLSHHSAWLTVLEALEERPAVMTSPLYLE
As to the kind of experiment: SPR; Biacore 3000, 25 °C; FGFR1-Fc amine-coupled at low density (about 1000 RU) on CM4; FHF1 0.1-3.2 uM at 30 ul/min; PBS, 0.05% Tween 20, 0.2% BSA, 0.02% NaN3, pH 7.4; KD from fitted saturation binding curve (equilibrium responses); 1:1 model did not fit. The conditions noted are these: both partners purified. A general note: Surface plasmon resonance follows binding to a sensor surface in real time, without labels.

B1: fibroblast growth factor homologous factor 1, short isoform (FHF1b) (ligand, human, UniProt P61328-2 1-181, looked up)
chain: MESKEPQLKGIVTRLFSQQGYFLQMHPDGTIDGTKDENSDYTLFNLIPVGLRVVAIQGVKASLYVAMNGEGYLYSSDVFTPECKFKESVFENYYVIYSSTLYRQQESGRAWFLGLNKEGQIMKGNRVKKTKPSSHFVPKPIEVCMYREPSLHEIGEKQGRSRKSSGTPTMNGGKVVNQDST
notes: short isoform (FHF1b) of human FHF1 (FGF12); construct in pDEST17; Construct from F. Nakayama; also called FGF12; source: E. coli BL21 CodonPlus (DE3) RIL, purified (His-Trap, desalting column)
As usually defined, the Kd is the concentration at which binding is half-saturated. B1: binding was characterised by a dissociation constant (Kd) of 612 nM.
